Reference: patent US20210284734A1 (SYMPHOGEN A S, published 2021)

Legend:
[1] = target: T1, human PD-1 ECD-Fc chimeric construct 20 (human, UniProt Q15116 21-170); test: SPR, Fab on captured PD-1-Fc
T1 construct: printed run together as I134VK135V; not shown: human IgG1 Fc, residues P101-K330
T1 chain: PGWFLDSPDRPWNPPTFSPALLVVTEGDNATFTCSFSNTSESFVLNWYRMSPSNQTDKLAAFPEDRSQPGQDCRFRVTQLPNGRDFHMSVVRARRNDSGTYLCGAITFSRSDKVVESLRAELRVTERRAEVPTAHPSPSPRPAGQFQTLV

[2] = target: T2, human PD-1 ECD-Fc chimeric construct 11 (human, UniProt Q15116 21-170); test: SPR, Fab on captured PD-1-Fc
T2 construct: printed run together as P83IE84R; not shown: human IgG1 Fc, residues P101-K330
T2 chain: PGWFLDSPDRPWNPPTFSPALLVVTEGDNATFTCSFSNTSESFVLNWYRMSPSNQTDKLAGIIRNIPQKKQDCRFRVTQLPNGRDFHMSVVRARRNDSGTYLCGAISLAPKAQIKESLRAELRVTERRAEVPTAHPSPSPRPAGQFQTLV

[3] = target: T3, human PD-1 ECD-Fc chimeric construct 22 (human, UniProt Q15116 21-170); test: SPR, Fab on captured PD-1-Fc
T3 construct: not shown: human IgG1 Fc, residues P101-K330
T3 chain: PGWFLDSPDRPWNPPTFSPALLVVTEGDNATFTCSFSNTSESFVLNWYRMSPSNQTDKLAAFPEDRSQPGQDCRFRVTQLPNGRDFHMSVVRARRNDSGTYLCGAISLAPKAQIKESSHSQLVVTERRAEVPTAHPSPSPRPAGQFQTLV

[4] = target: T4, human PD-1 ECD-Fc chimeric construct 2 (human, UniProt Q15116 21-170); test: SPR, Fab on captured PD-1-Fc
T4 construct: not shown: human IgG1 Fc, residues P101-K330
T4 chain: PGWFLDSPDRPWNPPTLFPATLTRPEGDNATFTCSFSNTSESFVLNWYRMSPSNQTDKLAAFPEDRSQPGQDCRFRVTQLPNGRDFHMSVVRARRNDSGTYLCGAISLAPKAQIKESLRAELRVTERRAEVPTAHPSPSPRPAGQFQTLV

[5] = target: T5, human PD-1 ECD-Fc chimeric construct 5 (human, UniProt Q15116 21-170); test: SPR, Fab on captured PD-1-Fc
T5 construct: 'S56I' as printed; not shown: C-terminal human IgG Fc (printed as residues P101-K330)
T5 chain: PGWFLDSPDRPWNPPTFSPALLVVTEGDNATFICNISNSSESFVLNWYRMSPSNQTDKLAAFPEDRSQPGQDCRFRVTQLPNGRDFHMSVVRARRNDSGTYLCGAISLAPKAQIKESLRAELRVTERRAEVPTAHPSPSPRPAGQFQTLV

[6] = target: T6, human PD-1 ECD-Fc chimeric construct 16 (human, UniProt Q15116 21-170); test: SPR, Fab on captured PD-1-Fc
T6 construct: not shown: human IgG1 Fc, residues P101-K330
T6 chain: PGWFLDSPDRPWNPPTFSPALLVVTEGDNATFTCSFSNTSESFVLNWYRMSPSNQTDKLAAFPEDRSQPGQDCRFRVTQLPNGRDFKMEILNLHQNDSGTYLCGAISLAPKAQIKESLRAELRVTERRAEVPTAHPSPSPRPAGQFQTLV

[7] = target: T7, human PD-1 ECD-Fc chimeric construct 23 (human, UniProt Q15116 21-170); test: SPR, Fab on captured PD-1-Fc
T7 construct: not shown: human IgG1 Fc, residues P101-K330

[8] = target: T8, human PD-1 ECD-Fc chimeric construct 1 (human, UniProt Q15116 21-170); test: SPR, Fab on captured PD-1-Fc
T8 construct: not shown: human IgG1 Fc, residues P101-K330

[9] = target: T9, human PD-1 ECD-Fc chimeric construct 19 (human, UniProt Q15116 21-170); test: SPR, Fab on captured PD-1-Fc
T9 construct: not shown: human IgG1 Fc, residues P101-K330
T9 chain: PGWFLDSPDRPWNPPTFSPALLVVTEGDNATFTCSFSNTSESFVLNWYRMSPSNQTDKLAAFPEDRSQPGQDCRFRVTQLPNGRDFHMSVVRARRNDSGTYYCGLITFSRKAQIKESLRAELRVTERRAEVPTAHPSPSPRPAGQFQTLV

[10] = target: T10, human PD-1 ECD-Fc chimeric construct 10 (human, UniProt Q15116 21-170); test: SPR, Fab on captured PD-1-Fc
T10 construct: printed run together as P83IE84R; not shown: human IgG1 Fc, residues P101-K330
T10 chain: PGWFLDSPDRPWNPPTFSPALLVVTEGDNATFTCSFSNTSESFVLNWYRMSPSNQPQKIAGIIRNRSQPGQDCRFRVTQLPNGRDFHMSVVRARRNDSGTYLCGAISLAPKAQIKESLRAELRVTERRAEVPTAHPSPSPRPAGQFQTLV

[11] = target: T11, human PD-1 ECD-Fc chimeric construct 8 (human, UniProt Q15116 21-170); test: SPR, Fab on captured PD-1-Fc
T11 construct: not shown: human IgG1 Fc, residues P101-K330
T11 chain: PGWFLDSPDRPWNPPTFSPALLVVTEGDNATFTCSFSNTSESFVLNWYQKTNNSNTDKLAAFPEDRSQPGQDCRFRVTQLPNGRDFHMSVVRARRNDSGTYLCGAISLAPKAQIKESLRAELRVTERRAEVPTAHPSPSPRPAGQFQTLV

[12] = target: T12, human PD-1 ECD-Fc chimeric construct 12 (human, UniProt Q15116 21-170); test: SPR, Fab on captured PD-1-Fc
T12 construct: not shown: human IgG1 Fc, residues P101-K330
T12 chain: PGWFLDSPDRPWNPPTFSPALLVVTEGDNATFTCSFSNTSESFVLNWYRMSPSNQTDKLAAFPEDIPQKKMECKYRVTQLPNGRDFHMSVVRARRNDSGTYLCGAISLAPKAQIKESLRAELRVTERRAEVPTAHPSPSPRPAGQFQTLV

[13] = target: T13, human PD-1 ECD Fc fusion, wild-type (human, UniProt Q15116 21-170); test: SPR, Fab on captured wild-type PD-1-Fc; row head prints (nM), values evidently in M
T13 construct: also called Hu PD-1 ECD wild-type; hu PD-1 ECD; not shown: human IgG1 Fc, residues P101-K330
T13 sequence (Q15116 21-170): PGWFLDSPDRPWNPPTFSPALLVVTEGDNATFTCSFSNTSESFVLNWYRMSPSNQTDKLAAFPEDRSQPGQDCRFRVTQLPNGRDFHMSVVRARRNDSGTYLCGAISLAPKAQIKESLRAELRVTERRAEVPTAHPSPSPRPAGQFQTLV

B1: 12819.17149 Fab (Fab, V domains shown)
VH: EVQLLESGGGLVQPGGSLRLSCAASGFTFTRYDMVWVRQAPGKGLEWVAGIGDSNKMTRYAPAVKGRATISRDNSKNTLYLQMNSLRAEDTAVYYCAKGSCIACWDEAGRIDAWGQGTLVTVSS
VL: SYELTQDPAVSVALGQTVRITCSGGGSYDGSSYYGWYQQKPGQAPVTVIYNNNNRPSDIPDRFSGSSSGNTASLTITGAQAEDEADYYCGSYDRPETNSDYVGMFGSGTKVTVL
notes: monomeric Fab fragment
- binding result [1]: no binding (tested: 1 nM to 50 nM)
- KD mutant/KD wild-type [2]: 17.7 ratio
- KD mutant/KD wild-type [3]: 1.9 ratio
- KD mutant/KD wild-type [4]: 2.3 ratio
- KD mutant/KD wild-type [5]: 1.2 ratio
- KD mutant/KD wild-type [6]: 3.6 ratio
- KD mutant/KD wild-type [7]: 1.7 ratio
- KD mutant/KD wild-type [8]: 1.2 ratio
- KD mutant/KD wild-type [9]: 175 ratio
- KD mutant/KD wild-type [10]: 33.7 ratio
- KD mutant/KD wild-type [11]: 6.4 ratio
- KD mutant/KD wild-type [12]: 2.2 ratio
- Kd [13]: 0.0268 nM

B2: 13112.15380 Fab (Fab, V domains shown)
VH: EVQLLESGGGLVQPGGSLRLSCAASGFTFSSYNMFWVRQAPGKGLEFVAEISGSNTGSRTWYAPAVKGRATISRDNSKNTLYLQMNSLRAEDTAVYYCAKSIYGGYCAGGYSCGVGLIDAWGQGTLVTVSS
VL: SYELTQDPAVSVALGQTVRITCSGGSSDYYGWFQQKPGQAPVTVIYYNNKRPSDIPDRFSGSSSGNTASLTITGAQAEDEADYYCGNADSSVGVFGSGTKVTVL
- KD mutant/KD wild-type [1]: 0.6 ratio
- KD mutant/KD wild-type [2]: 0.8 ratio
- KD mutant/KD wild-type [3]: 1 ratio
- KD mutant/KD wild-type [4]: 1 ratio
- KD mutant/KD wild-type [5]: 2.5 ratio
- KD mutant/KD wild-type [6]: 0.7 ratio
- KD mutant/KD wild-type [7]: 1.5 ratio
- KD mutant/KD wild-type [8]: 0.4 ratio
- KD mutant/KD wild-type [9]: 0.8 ratio
- KD mutant/KD wild-type [10]: 1 ratio
- KD mutant/KD wild-type [11]: 1.6 ratio
- KD mutant/KD wild-type [12]: 0.6 ratio

B3: 12865.17150 Fab (Fab, V domains shown)
VH: EVQLLESGGGLVQPGGSLRLSCAASGFDFSDHGMQWVRQAPGKGLEYVGVIDTTGRYTYYAPAVKGRATISRDNSKNTLYLQMNSLRAEDTAVYYCAKTTCVGGYLCNTVGSIDAWGQGTLVTVSS
VL: SYELTQDPAVSVALGQTVRITCSGGGSSSYYGWYQQKPGQAPVTVIYDDTNRPSGIPDRFSGSSSGNTASLTITGAQAEDEADYYCGGYEGSSHAGIFGSGTKVTVL
notes: monomeric Fab fragment
- binding result [1]: no binding (tested: 1 nM to 50 nM)
- KD mutant/KD wild-type [2]: 5.4 ratio
- KD mutant/KD wild-type [3]: 1 ratio
- KD mutant/KD wild-type [4]: 0.7 ratio
- KD mutant/KD wild-type [5]: 0.9 ratio
- KD mutant/KD wild-type [6]: 0.4 ratio
- KD mutant/KD wild-type [7]: 1 ratio
- KD mutant/KD wild-type [8]: 0.6 ratio
- binding result [9]: no binding (tested: 1 nM to 50 nM)
- KD mutant/KD wild-type [10]: 13.8 ratio
- binding result [11]: no binding (tested: 1 nM to 50 nM)
- KD mutant/KD wild-type [12]: 0.6 ratio
